Laboratory results from paper PMC6996922.

Key:
Chk1 [1] = biological target: Chk1 (UniProt O14757); assay: biotin-peptide streptavidin pull-down, purified Chk1; details: reference: NC peptide with pT916 and pS945, untreated; sites T916,S945
Chk1 [2] = biological target: Chk1 (UniProt O14757); assay: biotin-peptide streptavidin pull-down from lysate; details: reference: NC peptide with pT916 and pS945, untreated; sites T916,S945

Claspin NC peptide, 901-955 (from UniProt Q9HAW4) NC peptide pretreated with λ-phosphatase
binding against the reference (Chk1 [1]): lost | binding against the reference (Chk1 [2]): lost
